Assay [1] has as its target T1, recombinant human IL-33 (R&D Systems 3625-IL) (human, UniProt O95760 112-270, limits assumed).
T1 sequence (looked up): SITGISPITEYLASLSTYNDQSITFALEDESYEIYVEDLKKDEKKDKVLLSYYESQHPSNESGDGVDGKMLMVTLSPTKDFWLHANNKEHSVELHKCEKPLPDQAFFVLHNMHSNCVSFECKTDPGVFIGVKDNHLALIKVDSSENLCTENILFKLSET
Nature of the assay: cell-based or functional assay.

In assay [2] the target is T2, cynomolgus monkey IL-33 (Pfizer) (cynomolgus monkey, UniProt A0A2K5W3I1 112-269).
T2 sequence: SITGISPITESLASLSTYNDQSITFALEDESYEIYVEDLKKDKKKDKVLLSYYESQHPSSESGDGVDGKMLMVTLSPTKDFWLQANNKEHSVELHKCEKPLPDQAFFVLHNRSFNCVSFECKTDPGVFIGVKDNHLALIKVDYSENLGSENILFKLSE
Description: cell-based or functional assay.

Assay [3] deals with T1, recombinant human IL-33 (R&D Systems …). Nature of the assay: cell-based or functional assay. The source holds these as a separate data set.
Assay [4] deals with T3, recombinant human TSLP (glycosylated long form) (human, UniProt Q969D9 29-159). Nature of the assay: cell-based or functional assay.
For assay [5], the target named is T3, recombinant human TSLP (glycosylated …). Nature of the assay: competition ELISA on coated TSLP; competitor biotinylated TSLP-0001 (69 pM).
For assay [6] the target is unchanged. Nature of the assay: cell-based or functional assay. This is another data set of the same source.
The target is the same in assay [7]. Description: cell-based or functional assay. The source holds these as a separate data set.
Another assay deals with T4, human TSLP short form (human, UniProt Q969D9-2 1-63, limits assumed).
T4 construct: also called sfTSLP; TSLPsf Avi V5 His 10 Biotin
Description: SPR (Biacore 8K, 37 C), antibody captured on anti-Fab antibody on a CM5 chip, 300 nM short form TSLP injected (concentration from Example 79).

Assay [8] deals with T5, human IL-4R alpha (human, UniProt P24394 26-825). Description: cell-based or functional assay.
Assay [9] has as its target T5, human IL-4R alpha. Nature of the assay: cell-based or functional assay. This is another data set of the same source.

The values that follow come from US20240117030A1 (Pfizer, published 2024).

B1: IL13433-1258 (antibody)
heavy: EVQLVESGGGLVQPGGSLRLSCAASGFTFSSYWMYWVRQAPGKGLEWVAAITPNAGEDYYPESVKGRFTISRDNAKNSLYLQMNSLRAEDTAVYYCARGQYYYTKYSLGYWGQGTLVTVSSASTKGPSVFPLAPSSKSTSGGTAALGCLVKDYFPEPVTVSWNSGALTSGVHTFPAVLQSSGLYSLSSVVTVPSSSLGTQTYICNVNHKPSNTKVDKKVEPKSCRKTHTCPPCPAPEAAGAPSVFLFPPKPKDTLMISRTPEVTCVVVDVSHEDPEVKFNWYVDGVEVHNAKTKPREEQYNSTYRVVSVLTVLHQDWLNGKEYKCKVSNKALPAPIEKTISKAKGQPREPQVYTLPPSREEMTKNQVSLTCLVKGFYPSDIAVEWESNGQPENNYKTTPPVLDSDGSFFLYSRLTVDKSRWQQGNVFSCSVLHEALHSHYTQKSLSLSPGK
light 1: DIQMTQSPSSLSASVGDRVTITCRASQPIHNHLDWYQQKPGKAPKLLIYFGKNLQEGVPSRFSGSGSGTDFTLTISSLQPEDFATYYCFQYKKGWSFGGGTKVEIKRTVAAPSVFIFPPSDEQLKSGTASVVCLLNNFYPREAKVQWKVDNALQSGNSQESVTEQDSKDSTYSLSSTLTLSKADYEKHKVYACEVTHQGLSSPVTKSFNRGEC
chain 1: DIQMTQSPSSLSASVGDRVTITCKASESVDHFGWSLVHWYQQKPGKAPKLLIYRASNLESGVPSRFSGSGSGTDFTLTISSLQPEDFATYYCQQSNEDPWTFGGGTKVEIKRTVAAPSVFIFPPSDEQLKSGTASVVCLLNNFYPREAKVQWKVDNALQSGNSQESVTEQDSKDSTYSLSSTLTLSKADYEKHKVYACEVTHQGLSSPVTKSFNRGECGGGGSEVTLRESGPALVKPTQTLTLTCTFSGFSLSNFGEGLSWIRQPPGKGLEWLAHIYWDDDKRYNPSLKSRLTISKDTSRNQVVLTMTNMDPVDTATYYCARRETVFYWYFDVWGQGTTVTVSSASTKGPSVFPLAPSSKSTSGGTAALGCLVKDYFPEPVTVSWNSGALTSGVHTFPAVLQSSGLYSLSSVVTVPSSSLGTQTYICNVNHKPSNTKVDKKVEPKSCEKTHTCPPCPAPEAAGAPSVFLFPPKPKDTLMISRTPEVTCVVVDVSHEDPEVKFNWYVDGVEVHNAKTKPREEQYNSTYRVVSVLTVLHQDWLNGKEYKCKVSNKALPAPIEKTISKAKGQPREPQVYTLPPSREEMTKNQVSLTCEVKGFYPSDIAVEWESNGQPENNYKTTPPVLDSDGSFFLYSKLTVDKSRWQQGNVFSCSVLHEALHSHYTQKSLSLSPGK
light 2: DIQMTQSPSSLSASVGDRVTITCRASQSVDEEGDSYMNWYQQKPGKAPKLLIYAASNLESGVPSRFSGSGSGTDFTLTISSLQPEDFATYYCQQSNKDPPTFGGGTKVEIKRTVAAPSVFIFPPSDEQLKSGTASVVCLLNNFYPREAKVQWKVDNALQSGNSQESVTEQDSKDSTYSLSSTLTLSKADYEKHKVYACEVTHQGLSSPVTKSFNRGEC
chain 2: EVQLVESGGGLVQPGGSLRLSCAASGFTFSSYAMSWVRQAPGKGLEWVASISSGDTTYYPDSVKGRFTISRDNAKNSLYLQMNSLRAEDTAVYYCARNEGYYFGLTLWGQGTLVTVSSASTKGPSVFPLAPSSKSTSGGTAALGCLVKDYFPEPVTVSWNSGALTSGVHTFPAVLQSSGLYSLSSVVTVPSSSLGTQTYICNVNHKPSNTKVDKKVEPKSC
Consider B1, for which the “IC50, IL-33-induced SEAP activity in HEK-Blue IL-33 SEAP cells (median)” value in assay [1] stood at 0.0134 nM; in assay [2] it was 0.274 nM. Also, the “IC50 (pM) HEK-Blue IL-33 SEAP (mean)” value in [3] turned out to be 13.4 pM.

B2: TSLP-0100 (antibody, human IgG1, V domains shown)
VH: QMQLVESGGGVVQPGRSLRLSCAASGFTFRTYGMHWVRQAPGKGLEWVAVIWYDGSNKHYADSVKGRFTISRDNSKNTLYLQMNSLRAEDTAVYYCARAPQWELVHEAFDIWGQGTMVTVSS
VL: SYVLTQPPSVSVAPGQTARITCGGNNLGSKSVHWYQQKPGQAPVLVVYDDSDRPSWIPERFSGSNSGNTATLTISRGEAGDEADYYCQVWDSSSDHVVFGGGTKLTVLG
notes: also called IL413TSLP-0100
Regarding B2, the “anti-hTSLP TARC bioactivity (fold change to TSLP-0001)” value in assay [4] is 0.9 fold. In addition, in assay [5], the IC50 was found to be 0.87 nM. For the same molecule, the “a-TSLP bioassay (IC50, pM)” value in assay [6] was 24.6 pM. Moreover, the “a-TSLP TARC bioassay (fold change to TSLP-0001)” value in [7] came out at 0.9 fold.

B3: TSLP-0875 (antibody, human IgG1, lambda, V domains shown)
VH: QMQLVESGGGVVQPGRSLRLSCAASGFTFRTYGMHWVRQAPGKGLEWVAVIWYDGSNKHYADSVKGRFTISRDNSKNTLYLQMNSLRAEDTAVYYCARAPQWYLVHEAFDIWGQGTMVTVSS
VL: SYVLTQPPSVSVAPGQTARITCGGNNLGSKSVHWYQQKPGQAPVLVVYDDKDRPSWIPERFSGSNSGNTATLTISRGEAGDEADYYCQVWDSKSDHVVFGGGTKLTVLG
For the molecule B3, the binding result in the assay with human TSLP short form is listed as “no binding (tested: 300 nM)”.

B4: Dupilumab (antibody, V domains shown)
VH: EVQLVESGGGLEQPGGSLRLSCAGSGFTFRDYAMTWVRQAPGKGLEWVSSISGSGGNTYYADSVKGRFTISRDNSKNTLYLQMNSLRAEDTAVYYCAKDRLSITIRPRYYGLDVWGQGTTVTVSS
VL: DIVMTQSPLSLPVTPGEPASISCRSSQSLLYSIGYNYLDWYLQKSGQSPQLLIYLGSNRASGVPDRFSGSGSGTDFTLKISRVEAEDVGFYYCMQALQTPYTFGQGTKLEIKR
Regarding B4, in the assay with human IL-4R alpha [8], the “IC50 (median), IL-4 induced CD23 expression on human monocytes” value was 0.104 nM. Further, the “IC50 (median), IL-13 induced CD23 expression on human monocytes” value in the assay with human IL-4R alpha [9] was 0.0932 nM.
